Experimental findings from the DeepSol protein solubility set are described below.

This series can be described thus: soluble on expression in E. coli; label from the status in PepcDB or PDB records.
Regarding “MFQIYEIFSSVFNFDPKMPENVGVKEDDDKVFAKEIAQLEEEFEANTLKAESLEKEIAYSKVQIETENVKFAAIEQEKAIEIIKLEKQIKIMEAKLDFMKQDPIEIEEIEKLKHRVEEETQRNTEYAESLKYIKEMIRIKKAEKNEKKQKNAIDN”, the “soluble on expression in E. coli” value was “not soluble”.
For the sequence “MFRHVAQNLGSRNTSIQSYRLLRTRWERGYLKDLYHRRQILGADPAISRSSYPNCSVQVRNHHCSADKSTLQWAPIKTSIDNSSDDFAANTAEMKVLVEDLKAKISKIEQAGGEKAVKLHRSRGKMLARERIDGIVDAGSPFIEFSQLAGYEMYGKEEVPSGGILTGVGIVSGRVCVIVANDATVKGGTYYPITVKKHLRAQEIARENKLPCIYLVDSGGANLPRQADIFADSQHFGRIFYNQATMSSEGIPQLAVVMGSCTAGGAYVPAMSDQAIIVKGTGTVFLGGPPLVKAATGEEISAEELGGADLHCGESGVTDYYAHNDKHALYLARSCIAGLPPVEEHMTFNPNADEPLYPAEEIYGIVGSNLKKTYDVREVIARIVDGSRFHEFKERYGETLVTGFATIYGQRVGILANNGVLFAESAMKGSHFIELCCQRKIPLLFLQNITGFMVGRDAEAGGIAKHGAKLVTAVACAKVPKITVLVGGSYGAGNYGMCGRGYSPRYVFMWPNSRISVMGGEQAANVLSTVQKEKKKREGADWTDQQDLELRKPVEEKFEKEGHPYFASARLWDDGVIDPKDTRKVLGLAFQSTLQKPIPETKFGVFRM”, the “soluble on expression in E. coli” value is “not soluble”.
With “MFRKLGSSGSLWKPKNPHSLEYLKYLQGVLTKNEKVTENNKKILVEALRAIAEILIWGDQNDASVFDFFLERQMLLYFLKIMEQGNTPLNVQLLQTLNILFENIRHETSLYFLLSNNHVNSIISHKFDLQNDEIMAYYISFLKTLSFKLNPATIHFFFNETTEEFPLLVEVLKLYNWNESMVRIAVRNILLNIVRVQDDSMIIFAIKHTKEYLSELIDSLVGLSLEMDTFVRSAENVLANRERLRGKVDDLIDLIHYIGELLDVEAVAESLSILVTTRYLSPLLLSSISPRRDNHSLLLTPISALFFFSEFLLIVRHHETIYTFLSSFLFDTQNTLTTHWIRHNEKYCLEPITLSSPTGEYVNEDHVFFDFLLEAFDSSQADDSKAFYGLMLIYSMFQNNADVGELLSAANFPVLKESTTTSLAQQNLARLRIASTSSISKRTRAITEIGVEATEEDEIFHDVPEEQTLEDLVDDVLVDTENSAISDPEPKNVESESRSRFQSAVDELPPPSTSGCDGRLFDALSSIIKAVGTDDNRIRPITLELACLVIRQILMTVDDEKVHTSLTKLCFEVRLKLLSSIGQYVNGENLFLEWFEDEYAEFEVNHVNFDIIGHEMLLPPAATPLSNLLLHKRLPSGFEERIRTQIVFYLHIRKLERDLTGEGDTELPVRVLNSDQEPVAIGDCINLHNSDLLSCTVVPQQLCSLGKPGDRLARFLVTDRLQLILVEPDSRKAGWAIVRFVGLLQDTTINGDSTDSKVLHVVVEGQPSRIKKRHPVLTAKFIFDDHIRCMAAKQRLTKGRQTARGLKLQAICSALGVPRIDPATMTSSPRMNPFRIVKGCAPGSVRKTVSTSSSSSQGRPGHYSANLRSASRNAGMIPDDPTQPSSSSERRS”, the “soluble on expression in E. coli” value is given as “not soluble”.
Next, “MFRVQTLNQIAEKGLQVFTEERYEVGDRINHPDGILLRSYSLHQEEFSKDLKAIARAGAGVNNIPVERCTEKGIVVFNTPGANANAVKELIIASLIMSSRNIINGVSWTKNLEGEEVPQLVESGKKQFVGSEIAGKRLGVIGLGAIGALVANDALALGMDVIGYDPYISVETAWRLSTHVQRAFSLDEIFATCDYITLHIPLTNQTKGIIGEHAVEKMKRGMRLFNFSRGELVDEKVLQKALEEDIITHYVTDFPNENVIKMKNVTATPHLGASTSESEENCAVMAARQLREYLETGNIRNSVNYPNVELPYIGKKRITIMHQNVPNMVGQITGCLAEHHINIADMTNRSKHSWAYTMIDIDNGIDDIIKENIVENISKITGVVAVRMIV”: “not soluble”; “MFSAGHKIKGTVVLMPKNELEVNPDGSAVDNLNAFLGRSVSLQLISATKADAHGKGKVGKDTFLEGINTSLPTLGAGESAFNIHFEWDGSMGIPGAFYIKNYMQVEFFLKSLTLEAISNQGTIRFVCNSWVYNTKLYKSVRIFFANHTYVPSETPAPLVSYREEELKSLRGNGTGERKEYDRIYDYDVYNDLGNPDKSEKLARPVLGGSSTFPYPRRGRTGRGPTVTDPNTEKQGEVFYVPRDENLGHLKSKDALEIGTKSLSQIVQPAFESAFDLKSTPIEFHSFQDVHDLYEGGIKLPRDVISTIIPLPVIKELYRTDGQHILKFPQPHVVQVSQSAWMTDEEFAREMIAGVNPCVIRGLEEFPPKSNLDPAIYGDQSSKITADSLDLDGYTMDEALGSRRLFMLDYHDIFMPYVRQINQLNSAKTYATRTILFLREDGTLKPVAIELSLPHSAGDLSAAVSQVVLPAKEGVESTIWLLAKAYVIVNDSCYHQLMSHWLNTHAAMEPFVIATHRHLSVLHPIYKLLTPHYRNNMNINALARQSLINANGIIETTFLPSKYSVEMSSAVYKNWVFTDQALPADLIKRGVAIKDPSTPHGVRLLIEDYPYAADGLEIWAAIKTWVQEYVPLYYARDDDVKNDSELQHWWKEAVEKGHGDLKDKPWWPKLQTLEDLVEVCLIIIWIASALHAAVNFGEYPYGGLIMNRPTASRRLLPEKGTPEYEEMINNHEKAYLRTITSKLPTLISLSVIEILSTHASDEVYLGQRDNPHWTSDSKALQAFQKFGNKLKEIEEKLVRRNNDPSLQGNRLGPVQLPYTLLYPSSEEGLTFRGIPNSISI”: “soluble”; “MFSGFSSFGGGNGFVNMPQTFEEFFRCYPIAMMNDRIRKDDANFGGKIFLPPSALSKLSMLNIRYPMLFKLTANETGRVTHGGVLEFIAEEGRVYLPQWMMETLGIQPGSLLQISSTDVPLGQFVKLEPQSVDFLDISDPKAVLENVLRNFSTLTVDDVIEISYNGKTFKIKILEVKPESSSKSICVIETDLVTDFAPPVGYVEPDYKALKAQQDKEKKNSFGKGQVLDPSVLGQGSMSTRIDYAGIANSSRNKLSKFVGQGQNISGKAPKAEPKQDIKDMKITFDGEPAKLDLPEGQLFFGFPMVLPKEDEESAAGSKSSEQNFQGQGISLRKSNKRKTKSDHDSSKSKAPKSPEVIEID”: “soluble”.
As to “MFTCKVNEHITIRLLEPKDAERLAELIIQNQQRLGKWLFFAENPSSADTYRETIIPDWRRQYADLNGIEAGLLYDGSLCGMISLHNLDQVNRKAEIGYWIAKEFEGKGIITAACRKLITYAFEELELNRVAICAAVGNEKSRAVPERIGFLEEGKARDGLYVNGMHHDLVYYSLLKREWEGEKLEHHHHHH”, the “soluble on expression in E. coli” value is “not soluble”.
As for “MFTDSTAKTVAPYTWKTDAGARATSTSDCIVLVLNGNNPIVADVQSCNADTTLPALGVMCGKRAWVY”, the “soluble on expression in E. coli” value is listed as “soluble”.
The value for “MFTQRKKWLSGVAAGLLMAASVSASAEEKILHIYNWSDYIAPDTLANFQKETGIKVVYDVFDSNEVLEGKLMAGSTGFDLVVPSASFLERQLSAGVFKPLDKSKLPNEKNLDPELLALVSKHDPDNKYAIPYLWATTGIGYNVEKVKAVLGEDAPVNSWDLVLKPENLEKLKSCGVSFLDAPSEIFATVLNYLGKDPNSTLTADYTGSATDLLLKLRPNIRYFHSSQYINDLANGDICVAVGWAGDIMQASNRAKEAKNGVNVAYSIPKEGALAFFDVFAMPTDAKNQDEAYQFLNYLMRPDVIANISNHVFYANANQAATPLVNAEVRDNPGIYPPADVRAKMFTLKVQDPKIDRVITRAWTKVKSGK” was “not soluble”; that for “MFTQVKPYLSLPGFSCVLVNAGIVPPDLNQNFRVAFFNEKKSLNFYVLEKLFLNAEVKLLKPQKETEETFDFIISEIPFSHAFEEERKGLSNSIRNSLKEKGVLFIEYDSKPGSTPKEEFIRFIRLFLKKVESEQVKTDLEVILSRPSYFWARNNETRLYFLEKARRFNDDFVKREITNENYRIFSHDEVHELLKDCMLSFAGRANLEMNDPEIVLFPSHLATLARCGKNNLCKEAVIDFVLDTKQRRDIYAKFPEVDQEKAIESVADKFFLIPRQSPKNLRREVLLPGGHKLSLSEPVYDFFFVNSEEPRRLSEHPLYEKSKKTAWKAFYRVLSTGEFILCVNDDLLEDAKDELPESFELTPPNDEILKVSFENLEDTYLVSNATKGPAVHLNTLEVILLWFASEKGKTKAKEEAVKFLKSREEFIKLGTNIVKAREVKEEDINKTAEKLFKGRKAFNLNRLKIIRER” was “not soluble”; that for “MFVFDATPLIYLAKAERLSLLSRLDASRLIPQRVYEEVVTVGLDAGYPDARRIEQSVEEGTFDVVSVPETTLFDRLSGNPNVSDADVAVLALAADHGATAVMDDAYGRDIAAVEAIETRGTAYLVLSLVRDGELEADDARETLEAMLDAGWHCSPSLYSKLLSKLEELAVGGADNRLEHHHHHH” was “not soluble”.
With “MFVVKDCCQMIEVLFFIFKTNFKNCFPKMRKSKMYKSEPYSKKTIKIKKATDCGVITNIFSHFNEYVKQTIR”, the “soluble on expression in E. coli” value is “soluble”.
For the sequence “MFYAHNVDFRVFADFLYLLRVRNSGNVVLILDNASFHKSSYVLATASRLNINLLFLPPYSLDLNRIEFGRI”, the “soluble on expression in E. coli” value is reported as “soluble”.
The value for “MGACWSDNPKKVLEMLSPMNIIAITRSIPENTPNSWFIYWLTKVEEGEVRENIYAISPTKLEILPDLVKKALKLGYDGVYIDGIEALVIENGFKSVAKFLLHIKDIVLAENKFIILTLDPRALKEEEIKIIEKEFKKLELSLEHHHHHH” was “not soluble”; that for “MGCKISTEFCSDNPVGSISTSKVHPTDLSTPSYAIKPVEFYEEPLKDDQLFYKVALAKKEYREKEKDKKEQLSSNRRVSLQVEPNKLPIPLTRSSSLSSIMENRPPSGISNSSFIRSRNTASRRFTIDTSRAKSNQYVVSLCSKKIGIIEYPDGRSDKQPCDVYWHNVVLSDMNKIVTSPQSRVNKFPGMTELAKKISLTHSISSMQKLFPDEYAFYPNSWFLPAHLADFHAFYRKAQALGKTEMWFIVKPDEGAQGTGIYLINSPNQIRNVDQRQLVQEYVADPLLMNDKLKFDFRVYGVIKSINPLSIYVAREGMARFCTEKYEKPDSSNFKNLYAHLTNYSLNKANEAYVHSNTLQDQTRGSKRLLSTVFHQLESRGVKTKRLWHDIKLILVKTTLAMLPEIMLHYEHHFYDSTGPQCFQIMGFDVMIREDGTPILLEVNAAPSLTADHIVPHPGRTLLEGGQRVRSIVDEVIKIPLVRDTLLLVLGLMEEEYQNNSLKGETKSLDDMQTIKQRRKPHLSEIFPTRYGAHSGHLLFLDKAMYIYMQFVQLRSNVNITNAGLKQFVRKCNLIDIIPVVHVDAKVSEINYYFTGEKRTNGNGLPFHAFLMFLFFIAEKKFVLENDLLSKVQRLLSFCDMSLRRYGVRSARLRRAEVDSTIGNVEIYMLPSRMARNRSGTNGRKQNFTDDNNNPNSFAHLPKINERL” was “not soluble”; that for “MGCMKSKETFPFPTTLDIDKLHESEEAFIPDDSSQYRTPSPGEQQQVQEVKKLPEPGAVIGALILEFADRLASEIVEDALQQWACENIQYYNIPYIESEGSDTTIN” was “soluble”.
Next, “MGCSHSKNKNSKSKSAILKKEHPLERSIHHNRVAHFDETQPTSQSTSVESEELNVKHYSKTLLNDTVEPTHQKTSAHVPEKSIKKQEVKQEVKKHETTTVVHTNVHVPKPTHKLPQASEIPIERMGSDPHTAIAPTYQQKQFATSTYYPMPTIGEKQKSPEKAKPARKVDNTDEKKRKKDQNEKPVINGPNVRHQLTPEDLEYIKRSVQQRNERRAFMMAHRNETDDTLYELEVRMPEKDYTNRMEVGQNYRVC”: “not soluble”; “MGDCDIEGKDGKQYESVLMVSIDQLLDSMKEIGSNCLNNEFNFFKRHICDANKEGMFLFRAARKLRQFLKMNSTGDFDLHLLKVSEGTTILLNCTGQVKGRKPAALGAAQPTKSLEENKSLKEQKKLNDLCFLKRLLQEIKTCWNKILMGTKEH”: “soluble”.
